Legend:
[1] = target: T1, rhB7-H2-Fc (fusion protein of the extracellular part of human B7-H2 (ICOSL) and mouse Fc gamma 1, R&D Systems … (human; mouse, UniProt O75144 19-256; P01868 98-324 = IgG part, limits assumed); experiment: competition ELISA, periplasmic extract, coated B7-H2; blocked ligand ICOS-biotin
T1 construct: extracellular domain;domain: Fc; bought; also called B7-H2 ectodomain
Protocol: Binding specificity was determined based on OD values compared to controls having received no Nanobody (high control).
(§1) After expression, the Nanobodies were purified via the His-tag on Talon beads.

[2] = target: T1, rhB7-H2-Fc (fusion protein of the …); experiment: ELISA, coated B7-H2
Protocol: Next, 10 μl of periplasmic extract containing Nanobody of the different clones in 100 μl 2% Marvel PBST were allowed to bind to the immobilized antigen. […] Binding specificity was determined based on OD values compared to controls having received no Nanobody (low control).
as §1

[3] = target: T1, rhB7-H2-Fc (fusion protein of the …); experiment: competition ELISA, coated B7-H2; blocked ligand ICOS-biotin
[4] = target: T2, human CD28 on Jurkat cells (human, UniProt P10747 19-220); experiment: FACS, Jurkat cells
T2 construct: whole, on cells; also called native form of the CD28 antigen; cell expressed CD28
Protocol: (§2) Binding of putative CD28 reactive Nanobodies clones was detected using unlabeled anti-c-myc tag mouse monoclonal antibody 9E10, followed by a phycoerythrin conjugated F(ab′)2 derived from goat-anti-mouse IgG (human and bovine crossabsorbed), and read on a BD FACSarray instrument. Dead cells were excluded from the analysis by gating out TOPRO3 vital dye positive scoring cells. Binding of the Nanobodies to cells was evaluated in BD FACSarray control software as PE channel histograms.

[5] = target: T3, HuCD28-HuIgG1 (fusion protein of the extracellular part of human CD28 and human Fc gamma 1, R&D Systems Cat … (human, UniProt P10747 19-152; P01857 100-330 = IgG part); experiment: competition ELISA, periplasmic extract, CD28-hFc in solution; blocked ligand coated B7-1-muFc
T3 construct: extracellular domain;domain: Fc; bought; also called CD28-Ig; hCD28-Fc
Text: This mixture was applied on the coated B7-1 and CD28 was allowed to bind to the immobilized B7-1.

[6] = target: T2, human CD28 on Jurkat cells; experiment: FACS competition, Jurkat cells; blocked ligand CD80-Fc
Text: (§3) The potency of cell-expressed CD28 binding Nanobodies to inhibit the interaction of CD28 with either CD80 or CD86 was also ranked using FACS based screening method. […] Dead cells were stained by including TOPRO3 vital dye in the final resuspension buffer. All samples were read on a BD FACSarray instrument. Dead cells were excluded from the analysis by gating out TOPRO3 vital dye positive scoring cells.

[7] = target: T2, human CD28 on Jurkat cells; experiment: FACS competition, Jurkat cells; blocked ligand CD86-Fc
Text: as §3

[8] = target: T3, HuCD28-HuIgG1 (fusion protein of the …); experiment: competition ELISA, CD28-hFc in solution; blocked ligand coated B7-1-muFc
[9] = target: T4, HuCTLA4-HuIgG1 (fusion protein of the extracellular part of human CD152 and human Fc gamma 1, CTLA4-Ig) (human, UniProt P16410 36-161); experiment: competition ELISA, CTLA4-hFc in solution; blocked ligand coated B7-1-muFc
T4 construct: extracellular domain; also called CTLA4-hFc; CTLA4-Fc; not shown: human Fc gamma 1
Protocol: In order to determine B7-1 competition efficiency of CTLA4 binding Nanobodies, the purified clones were tested in an ELISA competition assay setup.

[10] = target: T4, HuCTLA4-HuIgG1 (fusion protein of the …); experiment: as above; remark: listed apart in the source
[11] = target: T4, HuCTLA4-HuIgG1 (fusion protein of the …); experiment: competition ELISA, CTLA4-hFc in solution; blocked ligand coated B7-2-muFc
[12] = target: T4, HuCTLA4-HuIgG1 (fusion protein of the …); experiment: SPR, Biacore T100, CTLA4-Ig amine-coupled
Protocol: Affinity constants (Kd) of individual purified Nanobody clones were determined by surface plasmon resonance on a Biacore T100 instrument. […] Remaining reactive groups were inactivated using ethanolamine. […] Each sample was injected for 2 min at a flow rate of 45 μl/min to allow for binding to chip-bound antigen. Next, binding buffer without Nanobody was sent over the chip at the same flow rate to allow for dissociation of bound Nanobody. After 2 min, remaining bound analyte was removed by injecting regeneration solution (10 mM Glycine/HCl pH 1.5). Binding curves obtained at different concentrations of Nanobody were used to calculate KD values. For some clones, only a single undetermined concentrations of Nanobody was injected.

[13] = target: T4, HuCTLA4-HuIgG1 (fusion protein of the …); experiment: alphascreen; competitor biotinylated HuCD80-MuIgG2a
Text: Individual clones were scored as putative CTLA4/CD80 interaction inhibiting if the presence of the periplasmic extract decreased the fluorescent signal of the acceptor beads.

[14] = target: T5, cynomolgus monkey CTLA4 on stably transfected CHO-K1 cells (human CTLA4 cDNA with S13N, I17T and L105M) (human backbone with cynomolgus monkey …, UniProt P16410 36-223); experiment: FACS, direct binding titration on cyno CTLA4 CHO cells (head prints IC50)
T5 chain: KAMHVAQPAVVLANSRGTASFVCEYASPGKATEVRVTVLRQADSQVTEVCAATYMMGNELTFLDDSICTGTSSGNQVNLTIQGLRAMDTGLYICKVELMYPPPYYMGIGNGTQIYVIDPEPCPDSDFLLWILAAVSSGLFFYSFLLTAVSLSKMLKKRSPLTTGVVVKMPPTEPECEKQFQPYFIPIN

[15] = target: T6, human CTLA4 (Y201 mutated to valine) on stably transfected CHO-K1 cells (human, UniProt P16410 36-223); experiment: competition FACS on human CTLA4 CHO cells; competitor HuCD80-HuIgG1 10 nM
T6 construct: whole, on cells; the mutation of the intracellular position Y201 keeps the protein on the membrane; also called human CTLA4 overexpressing CHO cells; human CTLA4 transfectant
Text: (§4) The potency of selected Nanobodies to inhibit the interaction of CTLA4 with CD80 was also ranked using FACS based screening method. […] This concentration was previously determined to be the minimal amount required to saturate all CD80 binding sites on both human and cyno CTLA4 expressing CHO cell clones in the absence of any CTLA4 interaction blocking proteins. […] Dead cells were stained by including TOPRO3 vital dye in the final resuspension buffer. All samples were read on a BD FACSarray instrument. Dead cells were excluded from the analysis by gating out TOPRO3 vital dye positive scoring cells.

[16] = target: T6, human CTLA4 (Y201 mutated to valine) on …; experiment: FACS, direct binding titration on human CTLA4 CHO cells (head prints IC50)
Protocol: as §2, with “CTLA4” for “CD28”

[17] = target: T6, human CTLA4 (Y201 mutated to valine) on …; experiment: FACS competition, human CTLA4 CHO cells; blocked ligand CD80-Fc
Text: as §4

B1: 95G6 (VHH)
VHH: EVQLVESGGALVQPGGSLRLSCAASGFTLGDYVIGWFRQAPGKEREWVSGISSRDGTTYYADSVKGRFTISRDNAKNTMYLQMNSLKPEDTAVYYCALRSGIAVARAPSNYDYWGQGTQVTVSS
notes: Nanobody against B7-H2 (ICOSL)
B1: binds [1].

B2: 95G5 (VHH)
VHH: EVQLVESGGGLVQAGGSLRLSCASSGSTFSIDVMGWYRQAPGKVRERVAIIGTGGFPVYADSVKGRFTISRDNAKNTVYLQMNSLKPEDTAVYYCNAARLVALGSWGQGTQVTVSS
notes: as for B1
In the case of B2, the “EC50 (read off the curve)” value [2] is reported as about 100 nM and the “IC50 (read off the curve)” value [3] is reported as about 10 nM.

B3: 65G2 (VHH)
VHH: EVQLVESGGGLVQPGGSLRLSCAASGFTLDAYAIHWFRQAPGKEREGVSCISSSDGSTYYANSVKGRFTISRDNAKNAVYLQMNSLKPEDTAVYYCATAKRCWGLSYEYDYWGQGTQVTVSS
notes: Nanobody against CD28
B3: binds [4]; binds [5].

B4: 65C2 (VHH)
VHH: EVQLVESGGGLVQAGGSLRLSCAASGLTFSNYVMGWFRQAPGKEREFVGTISWDGSDTYYTHSVKGRFTISRDNAKNVVNLQMNSLKPEDTAVYYCAADYRPGGLLSLGKNEYDYWGQGTQVTVSS
notes: Nanobody against CD28
For B4, the “EC50 (read off the curve)” value [4] was about 2 ng/well, the “IC50 (read off the curve)” value [6] was about 3 ng/well and the “IC50 (read off the curve)” value [7] was about 2 ng/well. The “IC50 (read off the curve)” value [8] was about 90 nM.

B5: 65C4 (VHH)
VHH: EVQLVESGGGLVQAGGSLRLSCKAAGRTFSSYAMGWFRQAPGKEREFVASIEWDGGGAYYEEAVKGRFTISRDNTKNTVYLQMDSLRPEDTAVYYCAASRWRTALTNYYDVADWGQGTQVTVSS
notes: Nanobody against CD28
In the case of B5, the “EC50 (read off the curve)” value [4] is reported as about 20 ng/well, the “IC50 (read off the curve)” value [6] is reported as about 10 ng/well and the “IC50 (read off the curve)” value [7] is reported as about 7 ng/well. The “IC50 (read off the curve)” value [8] was about 100 nM.

B6: 65H7 (VHH)
VHH: EVQLVESGGGLVQPGGSLRLSCAASGSILSIAVAGWYRRQPGKERELVATISPGNNTHYVDSVKGRFTISRDNAKNTVYLQMTTLKPDDTAAYYCNAKGSILLNAFDYWGKGTQVTVSS
notes: Nanobody against CTLA4; also called 65H7 (4-1)
In the case of B6, the “IC50 (read off the curve)” value [9] is reported as about 100 nM, the “IC50 (read off the curve)” value [10] is reported as about 100 nM and the “IC50 (read off the curve)” value [11] is reported as about 200 nM.

B7: 65D10 (VHH)
VHH: EVQLVESGGGLVQAGGSLRLSCAASGRTSSTATVGWFRQAPGKEREFVAVINWRSGFTYYADSVKGRFTISREYAKNTVYLQMDSLKPEDTAVYSCAADLGGRTLYGGIHYSPEEYAYWGQGTQVTVSS
notes: Nanobody against CTLA4; also called 65D10 (4-4)
In the case of B7, the “IC50 (read off the curve)” value [9] is reported as about 200 nM.

B8: 66B5 (VHH)
VHH: EVQLVESGGGLVQPGESLRLSCAASKSIFSISVMAWYRQAPGKQRELVARITPGGNTNYVDSVQGRFTISRDNAKNTVYLQMNSLKPEDTAVYYCNAQGSLLLAKYDYYGQGTQVTVSS
notes: Nanobody against CTLA4
B8: binds [11].

B9: 4CTLAPMP02F4 (VHH)
VHH: EVQLVESGGGLVQTGGSLRLSCAASGRTFSNYTMGWFRQAPGKDREFVAAISRSGALKAYADSVKGRFTPSRDNAKKMAYLQMNSLKPEDTAVYYCAAAPVPWGTRPSFFPYDSWGQGTQVTVSS
notes: short label tied to the entry by the clone code only; not shown: C-terminal c-myc tag and His6 tag
With B9 the Kd [12] was 0.466 nM, the koff [12] was 0.00266 s⁻¹ and the kon [12] was 5.69e+06 M⁻¹ s⁻¹. For the same binder, the IC50 [13] was 0.827 nM, the IC50 [14] was 2.36 nM and the IC50 [15] was 11.4 nM. The IC50 [16] was 2.38 nM and the “IC50 (read off the curve)” value [17] was about 10 nM.

B10: 4CTLAPMP11F1 (VHH)
VHH: EVQLVESGGGLVQAGGSLRLSCAASGGTFSFYGMGWFRQAPGKEQEFVADIRTSAGRTYYADSVKGRFTISRDNAKNTVYLQMNSLKPEDTAVYYCAAEMSGISGWDYWGQGTQVTVSS
notes: short label tied to the entry by the clone code only; also called 11F1 WT; not shown: C-terminal c-myc tag and His6 tag
In the case of B10, the Kd [12] is reported as 10 nM, the koff [12] is reported as 0.0187 s⁻¹ and the kon [12] is reported as 1.86e+06 M⁻¹ s⁻¹. The IC50 [13] was 1.04 nM, the IC50 [14] was 5.51 nM and the IC50 [15] was 36.4 nM. The IC50 [16] was 4.55 nM.

From patent US20240182575A1 (Ablynx, published 2024)
